# Experimental data as given in the RNAGym collection of RNA variant scans (doi:10.7554/elife.80360).
# B1: CPEB3 Ribozyme (parent)
# chain: GGGGGCCACAGCAGAAGCGUUCACGUCGCGGCCCCUGUCAGAUUCUGGUGAAUCUGCGAAUUCUGCUGU
# Variants of: B1
# Experiment: self-cleavage, relative activity (ratio to wild type); higher = more cleavage; co-transcriptional
row,Variant,self-cleavage
1,GGGGGCCACAGCAGAAGCGUUCACGUCGCGGCCCCUGUCAGAUUCUGGUGAGUCUGCGAAUCCUGCUGU [A52G U62C],0.915
2,GGGGGCCACAGCAGAAGCGUUCACGUCGCGGCCCCUGUCAGAUUCUGGUGAGUCUGCGAAUGCUGCUGU [A52G U62G],0.963
3,GGGGGCCACAGCAGAAGCGUUCACGUCGCGGCCCCUGUCAGAUUCUGGUGACUCAGCGAAUUCUGCUGU [A52C U55A],0.631
4,GGGGGCCACAGCAGAAGCGUUCACGUCGCGGCCCCUGUCAGAUUCUGGUGACUCGGCGAAUUCUGCUGU [A52C U55G],0.56
5,GGGGGCCACAGCAGAAGCGUUCACGUCGCGGCCCCUGUCAGAUUCUGGUGACUCCGCGAAUUCUGCUGU [A52C U55C],0.686
6,GGGGGCCACAGCAGAAGCGUUCACGUCGCGGCCCCUGUCAGAUUCUGGUGAUUCCGCGAAUUCUGCUGU [A52U U55C],0.63
7,GGGGGCCACAGCAGAAGCGUUCACGUCGCGGCCCCUGUCAGAUUCUGGUGACUCUGCGAAUUCCGCUGU [A52C U64C],0.842
8,GGGGGCCACAGCAGAAGCGUUCACGUCGCGGCCCCUGUCAGAUUCUGGUGACUCUGCGAAUUCGGCUGU [A52C U64G],0.829
9,GGGGGCCACAGCAGAAGCGUUCACGUCGCGGCCCCUGUCAGAUUCUGGUGAGUCUGCGAAUUCUACUGU [A52G G65A],0.945
10,GGGGGCCACAGCAGAAGCGUUCACGUCGCGGCCCCUGUCAGAUUCUGGUGAUUCUCCGAAUUCUGCUGU [A52U G56C],0.456
11,GGGGGCCACAGCAGAAGCGUUCACGUCGCGGCCCCUGUCAGAUUCUGGUGAUUCUGCGAAUUCUGCUCU [A52U G68C],0.98
12,GGGGGCCACAGCAGAAGCGUUCACGUCGCGGCCCCUGUCAGAUUCUGGUGAUUCUGCGAAUUCUGCUUU [A52U G68U],0.992
13,GGGGGCCACAGCAGAAGCGUUCACGUCGCGGCCCCUGUCAGAUUCUGGUGACUCUGCGAAUUCUGCAGU [A52C U67A],0.963
14,GGGGGCCACAGCAGAAGCGUUCACGUCGCGGCCCCUGUCAGAUUCUGGUGAUUCUGCGAAUUGUGCUGU [A52U C63G],0.72
15,GGGGGCCACAGCAGAAGCGUUCACGUCGCGGCCCCUGUCAGAUUCUGGUGAUUCUGCGAAUUAUGCUGU [A52U C63A],0.789
16,GGGGGCCACAGCAGAAGCGUUCACGUCGCGGCCCCUGUCAGAUUCUGGUGAGUCUGUGAAUUCUGCUGU [A52G C57U],0.407
17,GGGGGCCACAGCAGAAGCGUUCACGUCGCGGCCCCUGUCAGAUUCUGGUGAGUCUGGGAAUUCUGCUGU [A52G C57G],0.23
18,GGGGGCCACAGCAGAAGCGUUCACGUCGCGGCCCCUGUCAGAUUCUGGUGAUUCUGAGAAUUCUGCUGU [A52U C57A],0.453
19,GGGGGCCACAGCAGAAGCGUUCACGUCGCGGCCCCUGUCAGAUUCUGGUGAUUCUGUGAAUUCUGCUGU [A52U C57U],0.309
20,GGGGGCCACAGCAGAAGCGUUCACGUCGCGGCCCCUGUCAGAUUCUGGUGAUUCUGGGAAUUCUGCUGU [A52U C57G],0.334

row,Variant,self-cleavage
1,GGGGGCCACAGCAGAAGCGUUCACGUCGCGGCCCCUGUCAGAUUCUGGUGAUGCUGCGAAUUCUGCUGU [A52U U53G],0.871
2,GGGGGCCACAGCAGAAGCGUUCACGUCGCGGCCCCUGUCAGAUUCUGGUGAUACUGCGAAUUCUGCUGU [A52U U53A],0.981
3,GGGGGCCACAGCAGAAGCGUUCACGUCGCGGCCCCUGUCAGAUUCUGGUGAUCCUGCGAAUUCUGCUGU [A52U U53C],0.879
4,GGGGGCCACAGCAGAAGCGUUCACGUCGCGGCCCCUGUCAGAUUCUGGUGAGUCUCCGAAUUCUGCUGU [A52G G56C],0.819
5,GGGGGCCACAGCAGAAGCGUUCACGUCGCGGCCCCUGUCAGAUUCUGGUGAGUCUUCGAAUUCUGCUGU [A52G G56U],0.97
6,GGGGGCCACAGCAGAAGCGUUCACGUCGCGGCCCCUGUCAGAUUCUGGUGAGUCUACGAAUUCUGCUGU [A52G G56A],0.983
7,GGGGGCCACAGCAGAAGCGUUCACGUCGCGGCCCCUGUCAGAUUCUGGUGAGUCUGCGAAUUCCGCUGU [A52G U64C],0.912
8,GGGGGCCACAGCAGAAGCGUUCACGUCGCGGCCCCUGUCAGAUUCUGGUGAGUCUGCGAAUUCAGCUGU [A52G U64A],0.911
9,GGGGGCCACAGCAGAAGCGUUCACGUCGCGGCCCCUGUCAGAUUCUGGUGAGUCUGCGAAUUCGGCUGU [A52G U64G],0.957
10,GGGGGCCACAGCAGAAGCGUUCACGUCGCGGCCCCUGUCAGAUUCUGGUGAGUUUGCGAAUUCUGCUGU [A52G C54U],1.02
11,GGGGGCCACAGCAGAAGCGUUCACGUCGCGGCCCCUGUCAGAUUCUGGUGAGUAUGCGAAUUCUGCUGU [A52G C54A],0.931
12,GGGGGCCACAGCAGAAGCGUUCACGUCGCGGCCCCUGUCAGAUUCUGGUGAUUCUGCGAACUCUGCUGU [A52U U61C],0.68
13,GGGGGCCACAGCAGAAGCGUUCACGUCGCGGCCCCUGUCAGAUUCUGGUGAUUCUGCGAAAUCUGCUGU [A52U U61A],0.935
14,GGGGGCCACAGCAGAAGCGUUCACGUCGCGGCCCCUGUCAGAUUCUGGUGAUUCUGCGAUUUCUGCUGU [A52U A60U],0.486
15,GGGGGCCACAGCAGAAGCGUUCACGUCGCGGCCCCUGUCAGAUUCUGGUGAUUCUGCGAGUUCUGCUGU [A52U A60G],0.808
16,GGGGGCCACAGCAGAAGCGUUCACGUCGCGGCCCCUGUCAGAUUCUGGUGAUUCUGCGACUUCUGCUGU [A52U A60C],0.47
17,GGGGGCCACAGCAGAAGCGUUCACGUCGCGGCCCCUGUCAGAUUCUGGUGAGUCUGCGAAUUCUGCAGU [A52G U67A],1
18,GGGGGCCACAGCAGAAGCGUUCACGUCGCGGCCCCUGUCAGAUUCUGGUGACUCUGCGAAUACUGCUGU [A52C U62A],0.882
19,GGGGGCCACAGCAGAAGCGUUCACGUCGCGGCCCCUGUCAGAUUCUGGUGACUCUGCGAAUCCUGCUGU [A52C U62C],0.811
